{
  "source": "patent US11110182B2",
  "about": "“Multifunctional RNA nanoparticles and methods for treating cancer and therapeutic resistant cancer” (University of Cincinnati, priority 2016, dated 2021)",
  "molecules": {"B1": {"name": "pRNA-HER2apt-siMED1: 3-WJ pRNA nanoparticle bearing a HER2-targeting RNA aptamer and two different MED1 siRNAs; strands p1 SEQ ID NO: 3, p2 SEQ ID NO: 4 (nucleic acid)", "chain 1": "GGACAGUGAAAGUGAGUCAAAGGAUCAAUCAUGGCCAAAGAUGUUACUUUGAGAGCCUU", "chain 2": "GGCUCUCAAAGUAACAUCUAAGGCCAUGUGUAUGUGGGGGGAGGACGAUGCGGUCUGCUGUGCUUGAUAUGCCCCAGACGACUCGCCCCCCACAUACUUUGUUGAUCCAAUGACUCACUUUCACUGUCCUU", "modifications": "2'-F modification; third strand may lack entry; pRNA-HER2apt-siMED1, p1; pRNA-HER2apt-siMED1, p2"}},
  "test_system": "MDA-MB-231 cells",
  "assay": "pRNA nanoparticle cellular uptake assay (confocal, flow cytometry), MDA-MB-231",
  "type": "cell-based, human",
  "settings": "MDA-MB-231 (HER2-negative), AF647-conjugated, 10 μg/mL, confocal microscopy",
  "text": "FIG. 8A) HER2 expression in BT474 and MDA-MB-231 cells determined by western blot analyses. FIG. 8B) The binding of AF-647-labeled pRNA-HER2apt-siMED1 and its mutant nanoparticles to MDA-MB-231 and BT474 cells examined by confocal microscopy. Green represents the immunofluorescent staining of HER2, and blue represents nuclear staining with DAPI. FIG. 8C) The internalization of AF647-labeled pRNA nanoparticles by MDA-MB-231 cells examined by confocal microscopy. Green represents the immunofluorescent staining of β-actin. Scale bar: 10 μm. FIG. 8D) The cellular uptake of AF647-labeled pRNA nanoparticles by MDA-MB-231 cells quantified by flow cytometry. FIG. 8E) HER2 expression in BT474 xenograft tumors was examined by western blot analyses. FIG. 8F) MDA-MB-231 cells were incubated directly with (as indicated by-) or transfected with pRNAs using lipofectamine 2000. At 48 h post treatment, MED1 protein levels were determined by western blots.\nCell culture. […] The hydrodynamic diameter and Tm value of pRNA nanoparticles were determined using dynamic light scattering and TGGE assay, respectively, as previously described.^54 The AFM imaging of the pRNA nanoparticles was performed at the University of Nebraska Medical Center imaging facility as previously reported.^55 Briefly, the pRNA nanoparticles (5 μL) were deposited on APS modified mica ^56 for a total of 2 min of incubation time. […]",
  "data": [
    {"molecule": "B1", "values": [
      {"measurement": "binding and internalization into cells", "result": "not"}
    ]}
  ]
}
